Assay results from US20240383986A1 (OXFORD UNIVERSITY INNOVATION, published 2024).

Tests used:
[1] = target: human CD1a expressed on cells (with human β2M) (human) (UniProt P06126)
[2] = target: human CD1a expressed on cells (with human β2M) (human) (UniProt P06126); assay: flow cytometry of ear skin cells of a CD1a transgenic mouse given isotype control (row 'CD1a : iso'), HI149 staining; the WT mouse panel prints 0
[3] = target: human CD1a expressed on cells (with human β2M) (human) (UniProt P06126); assay: flow cytometry of ear skin cells of a CD1a transgenic mouse given antibody 116 100 µg i.p. on days 0, 2 and 4 (row 'CD1a : OX116'), HI149 staining on day 5; the cloud lies on the lower edge of the gate
[4] = target: human CD1a expressed on cells (with human β2M) (human) (UniProt P06126); assay: flow cytometry of ear skin cells of a CD1a transgenic mouse given isotype control (panel 'CD1a : iso'), SK9 staining; the WT mouse panel prints 1.30
[5] = target: human CD1a expressed on cells (with human β2M) (human) (UniProt P06126); assay: flow cytometry of ear skin cells of a CD1a transgenic mouse given antibody 116 100 µg i.p. on days 0, 2 and 4 (panel 'CD1a : OX116'), SK9 staining on day 5
[6] = target: human CD1a expressed on cells (with human β2M) (human, UniProt P06126 17-327; P61769 21-119); assay: cell-based or functional assay
[7] = target: T1, human CD1b expressed on HEK-293 cells (with human β2M) (human, UniProt P29016 18-333; P61769 21-119); assay: flow cytometry, transfected HEK-293 cells
T1 construct: whole, on cells; also called HEK-CD1b

[8] = target: T2, human CD1c expressed on HEK-293 cells (with human β2M) (human, UniProt P29017 18-333; P61769 21-119); assay: flow cytometry, transfected HEK-293 cells
T2 construct: whole, on cells; also called HEK-CD1c

[9] = target: T3, human CD1d expressed on HEK-293 cells (with human β2M) (human, UniProt P15813 20-335; P61769 21-119); assay: flow cytometry, transfected HEK-293 cells
T3 construct: whole, on cells; also called HEK-CD1d

**Q.** For HI149 (antibody), which IC50 of inhibition of the polyclonal T cell IFNγ ELISpot response to CD1a-K562 (n=6 donors) [1] is on record?
**A.** 1.14 µg/mL

**Q.** And the CD1a+ gate (percent of plotted cells) [2]?
**A.** 82.2%

**Q.** And the CD1a+ gate (percent of plotted cells) [3]?
**A.** 46.6%

**Q.** With SK9 (antibody) as the molecule, how does the IC50 of inhibition of the polyclonal T cell IFNγ ELISpot response to CD1a-K562 (n=6 donors) [1] read?
**A.** 6960 µg/mL

**Q.** What about the CD1a+ gate (percent of plotted cells) [4] of the same molecule?
**A.** 84.9%

**Q.** And the CD1a+ gate (percent of plotted cells) [5]?
**A.** 87.4%

**Q.** Which IC50 of inhibition of the polyclonal T cell IFNγ ELISpot response to CD1a-K562 (n=6 donors) [1] does the source give for OKT6 (antibody) here?
**A.** 1.97 µg/mL

B1: 111 (VR12113) (antibody, V domains shown)
VH: QSVEESGGRLVTPGTPLTLTCTASGFSLSTYAMSWVRQAPGKGLEWIGIISSSGSTYYASWAKGRFTISKTSTTVDLKITSPTTEDTATYFCARETWYWLDLWGQGTLVTVSS
VL: AVEMTQTPASVSAAVGGTVTINCQASEDIYSNLAWYQQKPGQPPKLLIYGASTLASGVPSRFKGSGSGTEYTLTISGVQCDDAATYYCQCAYDSSSYGTPFGGGTEVVVK
**Q.** How did the “IC50 of inhibition of the polyclonal T cell IFNγ ELISpot response to CD1a-K562 (n=6 donors)” value [6] turn out when B1 was run?
**A.** 1.04 µg/mL

**Q.** Does B1 bind [7]?
**A.** no binding (tested: up to 100 µg/ml)

**Q.** Does B1 bind [8]?
**A.** no binding (tested: up to 100 µg/ml)

**Q.** Does B1 bind [9]?
**A.** no binding (tested: up to 100 µg/ml)

B2: 77A (VR11851) (antibody, V domains shown)
VH: QSVEESGGRLVTPGTPLTLTCTVSGFSLSSYAMSWVRQAPGKGLEWIGIISSSGTTYYASWAKGRFTISKTSTTVDLKITSPTTEDTATYFCARVDYYSSGWGGLWGPGTLVTVSS
VL: AVEMTQTPASMSAAVGGTVTIKCQASEDIYSNLAWYQQKPGQPPKLLIYGASTLASGVPSRFKGSGSGTEYTLTISGVQCDDAATYYCQCTYDTSSYGNTFGGGTEMVVE
**Q.** For B2, which “IC50 of inhibition of the polyclonal T cell IFNγ ELISpot response to CD1a-K562 (n=6 donors); table row '77'” value [6] is on record?
**A.** 0.181 µg/mL

**Q.** Does B2 bind [7]?
**A.** no binding (tested: up to 100 µg/ml)

**Q.** Does B2 bind [8]?
**A.** no binding (tested: up to 100 µg/ml)

**Q.** Does B2 bind [9]?
**A.** no binding (tested: up to 100 µg/ml)

B3: 116 (VR12117) (antibody, V domains shown)
VH: QSVEESGGRLVTPGTPLTLTCTVSGFSLSNYAMSWVRQAPGKGLEWIGIIYTTGFTYYASWVKGRFTISKTSTTVDLKITSPTTEDTATYFCARGLATYVSPPTRLDLWGQGTLVTVSS
VL: AQVLTQTPSPVSAAVGGTVTINCQASQSIYNSKNLAWYQQKPGQPPKLLIYSASTLASGVPSRFKGSGSGTQFTLTISDLECDDAATYYCQGEFSCSSVDCATFGGGTEVVVK
notes: also called OX116
**Q.** B3 was tested. Which “IC50 of inhibition of the polyclonal T cell IFNγ ELISpot response to CD1a-K562 (n=6 donors)” value [6] did it give?
**A.** 0.141 µg/mL

**Q.** Does B3 bind [7]?
**A.** no binding (tested: up to 100 µg/ml)

**Q.** Does B3 bind [8]?
**A.** no binding (tested: up to 100 µg/ml)

**Q.** Does B3 bind [9]?
**A.** no binding (tested: up to 100 µg/ml)

B4: 110 (VR12112) (antibody, V domains shown)
VH: QSVEESGGRLVTPGTPLTLTCTVSGFSLSSYAMIWVRQAPGKGLEWIGIINSSDNTHYATWAKGRFTISKTSTTVDLKITSPTTEDTATYFCARDPYDYGYGWYFDLWGPGTLVTVSS
VL: AQVLTQTPSPVSAAVGGTVTINCQASQSVFNNKNLAWYQQKPGQPPKLLIYKASTLASGVSSRFKGSGSGTQFALTISGVQCDDAATYYCQGEFSCSSTDCVTFGGGTEVVVK
**Q.** How did the “IC50 of inhibition of the polyclonal T cell IFNγ ELISpot response to CD1a-K562 (n=6 donors)” value [6] turn out when B4 was run?
**A.** 0.155 µg/mL

**Q.** Does B4 bind [7]?
**A.** no binding (tested: up to 100 µg/ml)

**Q.** Does B4 bind [8]?
**A.** no binding (tested: up to 100 µg/ml)

**Q.** Does B4 bind [9]?
**A.** no binding (tested: up to 100 µg/ml)
